The data set in a line: protein stability index of a GFP-peptide fusion (GPS, HEK-293T) (PSI 1-6); higher = more stable. Conditions: c terminus: a fixed tail appended.

± gives the standard deviation.
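Further: 24-mer peptide tiles fused after GFP, lentivirally expressed, FACS-sorted into six equal bins by GFP/DsRed ratio, decoded by Illumina sequencing, PSI is the read-weighted mean bin number.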

With RPNSRHTPSFSGDSSSSCSDHCIT [VDR], the protein stability index reads like this: (treatment: DMSO) 4.52 ± 0.086; (treatment: MLN4924 1 uM, 8 h) 4.45 ± 0.25.

Regarding RGIHNIQKRYHCKECGKVFSQSAG [ZSCAN9], the protein stability index came to 2.58 ± 0.27 (treatment: DMSO) and 2.78 ± 0.24 (treatment: MLN4924 1 uM, 8 h).

For the sequence ICGFLKERCFRGSSYPVCVSKVVK [OAS1], the protein stability index reads like this: (treatment: DMSO) 2.62 ± 0.31; (treatment: MLN4924 1 uM, 8 h) 2.13 ± 0.3.

Regarding VIKISYSTPQGKGEVVKIPSRVHG [PWWP2B], the protein stability index by setting is: (treatment: DMSO) 2.5 ± 0.2; (treatment: MLN4924 1 uM, 8 h) 2.79 ± 0.3.

Consider MRYLRNHCLDQVGLFRKSGVKSRI [DLC1], for which the protein stability index (treatment: DMSO) stood at 2.64 ± 0.36 and the protein stability index (treatment: MLN4924 1 uM, 8 h) was 2.64 ± 0.37.

Consider KVHTVPKPGKGADLSKPPCRKAKE [ATE1], for which the protein stability index is, setting by setting: (treatment: DMSO) 4.94 ± 0.24; (treatment: MLN4924 1 uM, 8 h) 5.125 ± 0.046.

QSCWAFLPDLCLCRVFWWLGDRDR [FBXO39]: the protein stability index by setting is: (treatment: DMSO) 2.2 ± 0.35; (treatment: MLN4924 1 uM, 8 h) 2.27 ± 0.36.

Consider NQTALHLAAAHGHSEVVEELVSAD [RIPK4], for which the protein stability index reads like this: (treatment: DMSO) 5.46 ± 0.082; (treatment: MLN4924 1 uM, 8 h) 5.36 ± 0.11.

In the case of CFPSTQKPTEPSVPVQPLLPESLA [FBF1], the protein stability index by setting is: (treatment: DMSO) 4.14 ± 0.23; (treatment: MLN4924 1 uM, 8 h) 4.16 ± 0.15.

Take VIDLAESLVADNCVTLVWRMPDED [FSD1]: the protein stability index runs as follows: (treatment: DMSO) 2.35 ± 0.33; (treatment: MLN4924 1 uM, 8 h) 2.79 ± 0.27.

Take LVGIFILAVSRPRSSPDDLKALTR [SCARA5]: the protein stability index reads like this: (treatment: DMSO) 2.84 ± 0.39; (treatment: MLN4924 1 uM, 8 h) 2.84 ± 0.69.

In turn, YPIIFVYYLRKGKKINSNQLENEQ [SPANXN3] displayed a protein stability index (treatment: DMSO) of 2.37 ± 0.33 and a protein stability index (treatment: MLN4924 1 uM, 8 h) of 2.14 ± 0.26.

Consider HNGKIYISGGVHNGEYVPWLYCYD [KLHL14], for which the protein stability index runs as follows: (treatment: DMSO) 2.13 ± 0.68; (treatment: MLN4924 1 uM, 8 h) 2.32 ± 0.48.

As to AVARSPKRPAWGSRRFEAVGWWAL [POMT2], the protein stability index by setting is: (treatment: DMSO) 2.88 ± 0.97; (treatment: MLN4924 1 uM, 8 h) 2.49 ± 0.51.

For the sequence LGDRLNVEVDAAPAVDLNQVLNET [KRT33B], the protein stability index (treatment: DMSO) was determined as 4.93 ± 0.14 and the protein stability index (treatment: MLN4924 1 uM, 8 h) was 4.96 ± 0.097.

As to IIYVASNHFVWRLIPVPMATQIQQ [VPS39], the protein stability index (treatment: DMSO) turned out to be 3.19 ± 0.35 and the protein stability index (treatment: MLN4924 1 uM, 8 h) was determined as 3.09 ± 0.65.

As for AKHRLVPPAQGRVSRRLSPRKVST [TRIM9], the protein stability index came to 4.37 ± 0.23 (treatment: DMSO) and 4.65 ± 0.12 (treatment: MLN4924 1 uM, 8 h).

In the case of AATPRTNSVISVCSSSNLAGNDDS [DLC1], the protein stability index reads like this: (treatment: DMSO) 5.08 ± 0.3; (treatment: MLN4924 1 uM, 8 h) 5.17 ± 0.083.

In the case of RERREEDRAPAEQVPRSPVIKISY [PWWP2B], the protein stability index was found to be 4.34 ± 0.34 (treatment: DMSO) and 4.08 ± 0.18 (treatment: MLN4924 1 uM, 8 h).

As to NRSLAEACSEGDVNAVRKLLIEGR [ANKRD17], the protein stability index is, setting by setting: (treatment: DMSO) 4.01 ± 0.26; (treatment: MLN4924 1 uM, 8 h) 4.12 ± 0.27.

In the case of GLGFASNAFQETWYWHGDVNSNKV [LOXL2], the protein stability index (treatment: DMSO) was found to be 3.04 ± 0.12 and the protein stability index (treatment: MLN4924 1 uM, 8 h) was 2.44 ± 0.29.

Turning to AGSFSRRLIKRFSFKSKPKANGNP [C2CD2L], the protein stability index amounted to 3.19 ± 0.21 (treatment: DMSO) and 3.55 ± 0.15 (treatment: MLN4924 1 uM, 8 h).

As for NRQCLCSAESMVEYGTCMCLVKGI [SPRY1], the protein stability index is, setting by setting: (treatment: DMSO) 3.82 ± 0.28; (treatment: MLN4924 1 uM, 8 h) 3.83 ± 0.26.

On to RVDQDKDKDCSLDCAGSPQKPLCA [SMOC2], for which the protein stability index runs as follows: (treatment: DMSO) 5.39 ± 0.34; (treatment: MLN4924 1 uM, 8 h) 5.31 ± 0.32.

FVAFALCMFCLYSFMPLVIKVTSA [SLC35F2]: the protein stability index is, setting by setting: (treatment: DMSO) 3.2 ± 0.44; (treatment: MLN4924 1 uM, 8 h) 3.32 ± 0.68.

VTAEVDLFGDAFAASPGEAPAASE [SNAP91] returned a protein stability index (treatment: DMSO) of 5.02 ± 0.26 and a protein stability index (treatment: MLN4924 1 uM, 8 h) of 5.02 ± 0.16.

TLSNPQMSLEGTEKASWLGEQPQF [ELF3]: the protein stability index was 4.26 ± 0.34 (treatment: DMSO) and 4.21 ± 0.37 (treatment: MLN4924 1 uM, 8 h).

Turning to GGGSYGKLFESVECYDPRTQQWTA [GAN], the protein stability index is, setting by setting: (treatment: DMSO) 3 ± 0.13; (treatment: MLN4924 1 uM, 8 h) 3.13 ± 0.29.

For GSQIHDQFILRVSPDLEWHAACLK [ISL2], the protein stability index (treatment: DMSO) was 2.3 ± 0.43 and the protein stability index (treatment: MLN4924 1 uM, 8 h) amounted to 2.66 ± 0.54.

Turning to RKTQKKVPDVKEMEKSSFTEYIES [TAF7L], the protein stability index was 4.43 ± 0.13 (treatment: DMSO) and 4.47 ± 0.27 (treatment: MLN4924 1 uM, 8 h).

Regarding KSSVYRRYNDFVVFQEMLLHKFPY [SNX8], the protein stability index is, setting by setting: (treatment: DMSO) 2.45 ± 0.65; (treatment: MLN4924 1 uM, 8 h) 2.24 ± 0.39.

For QEMQQKLVELSAENEKLHQRVEQL [CEBPD], the protein stability index runs as follows: (treatment: DMSO) 4.84 ± 0.1; (treatment: MLN4924 1 uM, 8 h) 4.74 ± 0.54.

TCLPLGVLMKGQHLHLETFKAVLD [PRAME] had a protein stability index (treatment: DMSO) of 2.36 ± 0.25 and a protein stability index (treatment: MLN4924 1 uM, 8 h) of 2.32 ± 0.32.

Take VQYGAGVACSETAPDLVLNAEMVQ [LOXL2]: the protein stability index worked out at 4.108 ± 0.007 (treatment: DMSO) and 4.47 ± 0.25 (treatment: MLN4924 1 uM, 8 h).

EPASAREAPASVVPFVRVKREREV [USP39]: the protein stability index worked out at 4.93 ± 0.3 (treatment: DMSO) and 4.87 ± 0.58 (treatment: MLN4924 1 uM, 8 h).

For the sequence AYMGHLDVVALLINHGAEVTCKDK [ANKRD44], the protein stability index stood at 2.23 ± 0.39 (treatment: DMSO) and 2.44 ± 0.19 (treatment: MLN4924 1 uM, 8 h).

The values above are taken from the supplement of paper PMC10567573.
